Biological target: SARS-CoV-2 RBD (residues Arg319–Phe541) (SARS-CoV-2) (UniProt P0DTC2)

| Binder | SARS-CoV-2 pseudovirus neutralisation (luciferase, Huh7), IC50, Fab [nM] | SARS-CoV-2 pseudovirus neutralisation (luciferase, Huh7), IC80, Fab [nM] | other [%] |
| --- | --- | --- | --- |
| P5A-2G7 (Fab) (Fab, V domains shown) VH: QVQLQESGPGLVKPSETLSLTCTVSGDSVSSGSYYWSWIRQPPGKGLEWIGYIYYSGSTNYNPSLKSRVTISVDTSKNQFSLKLSSVTAADTAVYYCARERCYYGSGRAPRCVWFDPWGQGTLVTVSS VL: QSALTQPASVSGSPGQSITISCTGTSSDVGGYNYVSWYQQHPGKAPKLMIYDVSNRPSGVSNRFSGSKSGNTASLTISGLQAEDEADYYCSSYTSSSTLVVFGGGTKLTVL | 195 | 1020 | 15.5 |
| P5A-1B8 (Fab) (Fab, V domains shown) VH: EVQLVESGGGLIQPGGSLRLSCAASGFTVSSNYMSWVRQAPGKGLEWVSVIYPGGSTFYADSVKGRFTISRDNSKNTLYLQMNSLRAEDTAVYYCARETLAFDYWGQGTLVTVSS VL: DIQLTQSPSFLSASVGDRVTITCRASQGISSYLAWYQQKPGKAPKLLIYAASTLQSGVPSRFSGSGSGTEFTLTISSLQPEDFATYYCQQLNSYPPAFGGGTKVEIK | 36.2 | 174 | 25.1 |
